According to the supplement of paper PMC7877785:
± gives the uncertainty stated by the source.

Assay: self-splicing fitness, log relative to wild type (ln ratio); higher = more splicing; Tetrahymena group I intron in knt gene, E. coli kanamycin selection, DiMSum; sequences stand for … in CUCUCU…GGAGGGAAAAGUUAUCAGGCAUGCACCUGGUAGCUAGUCUUUAAACCAAUAGAUUGCAUCGGUUUAAAAGGCAAGACCGUCAAAUUGCGGGAAAGGGGUCAACAGCCGUUCAGUACCAAGUCUCAGGGGAAACUUUGAGAUGGCCUUGCAAAGGGUAUGGUAAUAAGCUGACGGACAUGGUCCUAACCACGCAGCCAAGUCCUAAGUCAACAGAUCUUCUGUUGAUAUGGAUGCAGUUCACAGACUAAAUGUCGGUCGGGGAAGAUGUAUUCUUCUCAUAAGAUAUAGUCGGACCUCUCCUUAAUGGGAGCUAGCGGAUGAAGUGAUGCAACACUGGAGCCGCUGGGAACUAAUUUGUAUGCGAAAGUAUAUUGAUUAGUUUUGGAGUACUCGUGGUCG
Procedure, shortened: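 Pooled colonies went to amplicon sequencing on an Illumina HiSeq 2500 after six replicate transformations. The plates were LB agar with 100 μg/mL carbenicillin, 50 μM IPTG and 0.2% rhamnose, with or without 25 μg/mL kanamycin, incubated overnight at 37°C or 30°C. The E. coli BL21(DE3) library had all eight P1ex-region intron nucleotides randomised, the intron placed in the knt kanamycin-resistance gene on pET-22b(+). DiMSum fitness is the error-weighted combination of replicate fold changes, kanamycin against none, normalised to wild type.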

| Sequence | self-splicing fitness (ln) (30 °C) | self-splicing fitness (ln) (37 °C) |
| --- | --- | --- |
| CGACAGCAAUAUUACGCAUA | -3.03 ± 0.18 | -2.33 ± 0.18 |
| CGACAGCAAUAUUACGCCUG | -0.901 ± 0.066 | -0.0701 ± 0.069 |
| CGACAGCAAUAUUACGCGAU | -2.8 ± 0.22 | -2.46 ± 0.28 |
| CGACAGCAAUAUUACGGACA | -1.24 ± 0.11 | -0.761 ± 0.12 |
| CGACAGCAAUAUUACGGCCG | -2.22 ± 0.12 | -1.21 ± 0.12 |
| CGACAGCAAUAUUACGGGAG | -3.21 ± 0.15 | -1.97 ± 0.13 |
| CGACAGCAAUAUUACGGUGU | -3.48 ± 0.14 | -2.77 ± 0.16 |
| CGACAGCAAUAUUACGUAAC | -4.37 ± 0.23 | -2.03 ± 0.31 |
| CGACAGCAAUAUUACGUACU | -1.26 ± 0.082 | -0.578 ± 0.089 |
| CGACAGCAAUAUUACGUCCU | -0.518 ± 0.072 | -0.311 ± 0.078 |
| CGACAGCAAUAUUACGUGCG | -4.12 ± 0.17 | -2.5 ± 0.19 |
| CGACAGCAAUAUUACGUUUG | -3.09 ± 0.15 | -1.19 ± 0.11 |
| CGAGAGCAAUAUUACGAAUU | -2.77 ± 0.29 | – |
| CGAGAGCAAUAUUACGAUUC | -2.96 ± 0.38 | -1.19 ± 0.29 |
| CGAGAGCAAUAUUACGCACA | -2.47 ± 0.27 | – |
| CGAGAGCAAUAUUACGCACU | -2.06 ± 0.2 | -1.89 ± 0.23 |
| CGAGAGCAAUAUUACGCCAG | – | -1.51 ± 0.4 |
| CGAGAGCAAUAUUACGCGCA | -3.56 ± 0.48 | -1.38 ± 0.26 |
| CGAGAGCAAUAUUACGCGCG | -1.64 ± 0.25 | – |
| CGAGAGCAAUAUUACGGUCA | -3.17 ± 0.27 | -2.29 ± 0.3 |
| CGAGAGCAAUAUUACGUAAC | – | -1.98 ± 0.34 |
| CGAGAGCAAUAUUACGUAGG | -3.03 ± 0.15 | -1.39 ± 0.15 |
| CGAGAGCAAUAUUACGUCGU | – | -3.09 ± 0.37 |
| CGAGAGCAAUAUUACGUGUA | -3.34 ± 0.22 | -2.9 ± 0.23 |
| CGAGAGCAAUAUUACGUUUG | -4.63 ± 0.28 | -2.12 ± 0.22 |

| Sequence | self-splicing fitness (ln) (30 °C) | self-splicing fitness (ln) (37 °C) |
| --- | --- | --- |
| CGAUAGCAAUAUUACGAAGU | -2.89 ± 0.18 | -2.58 ± 0.23 |
| CGAUAGCAAUAUUACGACCU | -1.35 ± 0.12 | 0.288 ± 0.14 |
| CGAUAGCAAUAUUACGCAAU | -3.43 ± 0.27 | -2.26 ± 0.25 |
| CGAUAGCAAUAUUACGCAUA | -3.25 ± 0.28 | -1.8 ± 0.24 |
| CGAUAGCAAUAUUACGCCGA | -1.92 ± 0.21 | -2.05 ± 0.28 |
| CGAUAGCAAUAUUACGCGGA | -2.21 ± 0.22 | -0.662 ± 0.15 |
| CGAUAGCAAUAUUACGGCGU | -0.866 ± 0.085 | 0.51 ± 0.12 |
| CGAUAGCAAUAUUACGGGCA | -2.06 ± 0.14 | -1.53 ± 0.15 |
| CGAUAGCAAUAUUACGGGGG | -3.7 ± 0.3 | -1.49 ± 0.16 |
| CGAUAGCAAUAUUACGGUCA | -0.212 ± 0.057 | 0.228 ± 0.065 |
| CGAUAGCAAUAUUACGGUUA | -0.777 ± 0.17 | -0.253 ± 0.13 |
| CGAUAGCAAUAUUACGGUUG | -1.9 ± 0.15 | -0.9 ± 0.13 |
| CGAUAGCAAUAUUACGUCCG | -1.4 ± 0.1 | -0.5 ± 0.12 |
| CGAUAGCAAUAUUACGUGUU | -4.25 ± 0.14 | -2.3 ± 0.1 |
| CGCAAGCAAUAUUACGAAUU | -2.55 ± 0.2 | -3.57 ± 0.46 |
| CGCAAGCAAUAUUACGACUA | -1.47 ± 0.22 | -0.703 ± 0.2 |
| CGCAAGCAAUAUUACGAGGA | -3.23 ± 0.24 | -2.81 ± 0.29 |
| CGCAAGCAAUAUUACGAGGC | -2.71 ± 0.2 | -2.84 ± 0.29 |
| CGCAAGCAAUAUUACGAGUA | -2.53 ± 0.14 | -0.869 ± 0.096 |
| CGCAAGCAAUAUUACGAUAA | -3.03 ± 0.19 | -1.51 ± 0.23 |
| CGCAAGCAAUAUUACGCCGC | – | -1.24 ± 0.49 |
| CGCAAGCAAUAUUACGGACG | -1.45 ± 0.1 | -0.532 ± 0.11 |
| CGCAAGCAAUAUUACGGACU | -1.39 ± 0.08 | 0.158 ± 0.082 |
| CGCAAGCAAUAUUACGGAGU | -3.16 ± 0.2 | -1.68 ± 0.18 |
| CGCAAGCAAUAUUACGGGCA | 0.0951 ± 0.064 | -0.199 ± 0.075 |
